This note sets out measurements from article PMC3420021, “Crystallographic Analysis of Polypyrimidine Tract-Binding Protein-Raver1 Interactions Involved in Regulation of Alternative Splicing” (Structure(London, England:1993), 2011).

The target in the assay is T1, PTB RRM2 (residues 156-285 of PTB) as it stands in the PRI-RRM2 chimeras (UniProt P26599 156-285).
T1 construct: the linker residues had no density; source: E. coli BL21 (DE3), purified as part of the PRI-RRM2 chimeras
In words: crystal structure; PRI sequence fused as N-terminal extension to PTB 156-285 on one chain; sitting drop, 0.2 M NaI, 0.1 M Bis-Trispropane pH 6.5, 20% PEG 3350; two complexes in the asymmetric unit. The note with it: both partners purified.

T1 sequence (P26599 156-285, change not shown): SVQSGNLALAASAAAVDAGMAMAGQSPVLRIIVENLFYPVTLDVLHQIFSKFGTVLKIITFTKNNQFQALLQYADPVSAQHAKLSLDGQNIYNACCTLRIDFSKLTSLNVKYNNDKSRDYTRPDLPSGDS

B1: Raver1 PRI4 12-residue sequence as it stands in the PRI4-RRM2 chimera (peptide)
peptide: SSEGLLGLGPGP
notes: core GLLGLGP is numbered 1-7; In the crystal it was joined on one chain with m3 (chimera m5); source: E. coli BL21 (DE3), purified as part of the PRI4-RRM2 chimera
With B1, the binding result is given as “binds”.

B2: Raver1 PRI3 12-residue sequence as it stands in the PRI3-RRM2 chimera (peptide)
peptide: PGVSLLGAPPKD
notes: core SLLGAPP is numbered 1-7; In the crystal it was joined on one chain with m3 (chimera m1); source: E. coli BL21 (DE3), purified as part of the PRI3-RRM2 chimera
As to B2, the binding result is on record as “binds”.
